Source: patent US20230322922A1

Key:
[1] = target: human HER2 expressed on target cells (BT-474, SKOV3, MCF-7, human cardiomyocytes) (human) (UniProt P04626); assay: cell-based or functional assay
human HER2 (human) = human HER2 (human) (UniProt P04626); assay: surface plasmon resonance, equilibrium binding analysis
human CD3 (human) = assay: as above
[2] = target: cynomolgus monkey CD3 (cynomolgus monkey); assay: as above
[3] = target: cynomolgus monkey HER2 (cynomolgus monkey); assay: as above

Substance | T cell-mediated cytotoxicity against BT474 cells (PBMC 1:1, 48 h, CellTiter-Glo), EC50 [1] [nM] | T cell-mediated cytotoxicity against SKOV3 cells (PBMC 1:1, 48 h, CellTiter-Glo), EC50 [1] [nM] | Kd (human HER2 (human)) [nM] | Kd (human CD3 (human)) [nM] | fold reduction of affinity by masking, against AMX-818(PAT) (human CD3 (human)) [fold] | Kd [2] [nM] | fold reduction of affinity by masking, against AMX-818(PAT) [2] [fold] | Kd [3] [nM] | fold reduction of affinity by masking, against AMX-818(PAT) [3] [fold] | Jurkat NFAT-Luciferase reporter T cell activation in the presence of BT-474 cells, EC50 [1] [pM] | cytotoxicity against BT-474 tumor cells with PBMC effectors (1:1), IC50 [1] [pM]
AMX-818 (bispecific antibody) | 49.4 | 44.5 | 24.9 | 160 | 6 | 140 | 6 | 20.1 | 10 | – | –
AMX-818(PAT) (bispecific antibody) | 0.0048 | 0.0034 | – | 26.3 | – | 21.5 | – | 2 | – | 70 | 5 to 11
